Test results from patent US20260109758A1 (BIOSION, published 2026).
Like-named read-outs stand apart in the source and are kept apart here.

Columns and labels:
[1] = molecular target: human IL4Rα on HEK293T-IL4R/STAT6/STAT6-Luc LB2 cells (human, UniProt P24394 26-825); assay: cell-based or functional assay
[2] = molecular target: T1, human IL4Rα expressed on 293F-IL4Rα cell surface (human, UniProt P24394 26-825); assay: flow cytometry on 293F-IL4Rα cells, PE anti-human IgG Fc
T1 construct: whole, on cells; also called human IL4Rα-expressing cells; cell surface IL4R
Description: (§1) Cells were washed twice with FACS buffer, and added with 100 μL/well R-Phycoerythrin AffiniPure Goat Anti-Human IgG, Fey fragment specific (1:1000 dilution in FACS buffer, Jackson Immunoresearch, Cat #109-115-098). Following an incubation of 40 minutes at 4° C. in dark, cells were washed three times and resuspended in FACS buffer. Fluorescence was measured using a Becton Dickinson FACS Canto II-HTS equipment. Data was analyzed using Graphpad Prism and EC₅₀ values were reported.

[3] = molecular target: T1, human IL4Rα expressed on 293F-IL4Rα …; assay: cell-based blocking FACS on 293F-IL4Rα cells; blocked ligand biotin human IL4
Description: (§2) Then, 1×10⁵ cells per well were incubated in 96 well-plates in 100 μL of serially diluted bispecific antibodies, the positive controls or negative control (starting at 100 nM with a 5-fold serial dilution) in FACS buffer for 40 minutes on ice. […] The plates were washed twice with FACS buffer, and then added and incubated for 40 minutes at 4° C. in dark with 100 μL/well R-Phycoerythrin Streptavidin (1:500 dilution in FACS buffer, Jackson Immunoresearch, Cat #016-110-084). Cells were washed twice and resuspended in FACS buffer. Fluorescence was measured using a Becton Dickinson FACS Canto II-HTS equipment. Data was analyzed using Graphpad Prism and IC₅₀ values were reported.

[4] = molecular target: T2, recombinant human IL4Rα-his (human, UniProt P24394 26-231, limits assumed, biotin-labeled in the capture ELISA); assay: capture ELISA: antibody captured on anti-human IgG Fc F(ab')2, biotin human IL4Rα-his, SA-HRP
T2 construct: In-house made; not shown: His tag at the C-terminus
Description: (§3) Briefly, 96-well plates were coated with 2 μg/mL AffiniPure F(ab′)₂ Fragment Goat Anti-Human IgG, Fey fragment specific (Jackson Immuno Research, Cat #109-006-008) in PBS, 100 μL/well, overnight at 4° C. Plates were washed once with wash buffer (PBS+0.05% w/v Tween-20, PBST) and then blocked with 200 μL/well blocking buffer (5% w/v non-fatty milk in PBST) for 2 hours at 37° C. […] After a final wash, plates were incubated with 100 μL/well ELISA substrate TMB (Innoreagents, Cat #TMB-S-002). The reaction was stopped in 10 minutes at 25° C. with 50 μL/well 1M H₂SO₄, and the absorbance was read on a microplate reader using dual wavelength mode with 450 nm for TMB and 630 nm as the reference wavelength. Data was analyzed using Graphpad Prism and EC₅₀ values were reported.

[5] = molecular target: T2, recombinant human IL4Rα-his; assay: competitive ELISA: coated human IL4Rα-his, antibody titrated; blocked ligand biotin human IL4
Description: (§4) Briefly, 100 μL human IL4Rα-his proteins (prepared in-house, IL4Rα of SEQ ID NO: 33 with C-terminal His tag) were coated on 96-well micro plates at 2 μg/mL in PBS overnight at 4° C. The next day, plates were washed with wash buffer (PBS+0.05% w/v Tween-20, PBST), and blocked with 5% w/v non-fatty milk in PBST for 2 hours at 37° C. Plates were then washed again using wash buffer. Serially diluted bispecific antibodies or the controls (starting at 100 nM with a 5-fold serial dilution) in 2.5% w/v non-fatty milk in PBST, 100 μL per well, were added to the IL4Rα bound plates, and incubated at 37° C. for 40 minutes. […] Plates were washed again using wash buffer. Thereafter, the plates were added with 100 μL/well of streptavidin conjugated HRP (1:10000 dilution in PBST buffer, Jackson Immunoresearch, Cat #016-030-084) and incubated for 40 minutes at 37° C. Plates were washed again using wash buffer. Finally, TMB was added and the reaction was stopped using 1M H₂SO₄, and the absorbance was read at 450 nm. Data was analyzed using Graphpad Prism and IC₅₀ values were reported.

[6] = molecular target: T2, recombinant human IL4Rα-his; assay: as above; remark: listed apart in the source
Description: as §4

[7] = molecular target: T1, human IL4Rα expressed on 293F-IL4Rα …; assay: flow cytometry on 293F-IL4Rα cells, PE anti-human IgG Fc; remark: listed apart in the source
Description: as §1

[8] = molecular target: T1, human IL4Rα expressed on 293F-IL4Rα …; assay: cell-based blocking FACS on 293F-IL4Rα cells; blocked ligand biotin human IL4; remark: listed apart in the source
Description: as §2

[9] = molecular target: T2, recombinant human IL4Rα-his; assay: capture ELISA: antibody captured on anti-human IgG Fc F(ab')2, biotin human IL4Rα-his, SA-HRP; remark: listed apart in the source
Description: as §3

[10] = molecular target: T2, recombinant human IL4Rα-his; assay: SPR Biacore T200; antibody captured on anti-human IgG CM5 chip, IL4Rα-his as analyte; 1:1 Langmuir fit
Description: The goat anti-human IgG (GE healthcare, Cat #BR100839, Human Antibody Capture Kit) was covalently linked to a CM5 chip (carboxy methyl dextran coated chip) via primary amines, using a standard amine coupling kit provided by Biacore (GE healthcare, Pittsburgh, PA, USA). Un-reacted moieties on the biosensor surface were blocked with ethanolamine. Then, purified bispecific antibodies of the disclosure at the concentration of 66.67 nM and the controls at 10 μg/mL, were flowed onto the chip at a flow rate of 10 μL/min. Then, serially diluted recombinant human IL4Rα-his (in house made, IL4Rα of SEQ ID NO: 33 with His tag at C-terminus) in HBS EP buffer (provided by Biacore) was flowed onto the chip at a flow rate of 30 μL/min. The association and dissociation curves were fit to a 1:1 Langmuir binding model using BIAcore evaluation software.

[11] = molecular target: T3, recombinant human TSLP-his (human, UniProt Q969D9 29-159, biotin-labeled in the ELISAs); assay: capture ELISA: antibody captured on anti-human IgG Fc F(ab')2, biotin human TSLP-his, SA-HRP
T3 construct: In-house made; not shown: His tag at the C-terminus
Description: Briefly, 96-well micro plates were coated with 100 μL 2 μg/mL AffiniPure F(ab′)₂ Fragment Goat Anti-Human IgG, Fey fragment specific (Jackson Immuno Research, Cat #109-006-008) in PBS and incubated overnight at 4° C. Plates were washed 4 times with wash buffer (PBS+0.05% Tween-20, PBST) and then blocked with 200 μL/well blocking buffer (5% w/v non-fatty milk in PBST) for 2 hours at 37° C. […] After the final wash, the plates were incubated with 100 μL/well TMB (Innoreagents). The reaction was stopped 15 minutes later at room temperature with 50 μL/well 1M H₂SO₄, and the absorbance of each well was read on a microplate reader using dual wavelength mode with 450 nm for TMB and 630 nm as the reference wavelength. The OD (450-630) values were plotted against antibody concentration. Data was analyzed using Graphpad Prism and EC₅₀ values were reported.

[12] = molecular target: T3, recombinant human TSLP-his; assay: competitive ELISA: antibody pre-mixed with biotin human TSLP-his; blocked binding to coated TSLPR-Fc/IL7Ra-Fc
Description: Briefly, 100 μL human TSLPR-Fc proteins (SEQ ID NO: 34-SEQ ID NO: 38 fusion, prepared in-house) at 1 μg/mL in PBS, and 100 μL human IL7Ra-Fc proteins (SEQ ID NO: 35-SEQ ID NO: 38 fusion, prepared in-house) at 1 μg/mL in PBS were coated on 96-well micro plates overnight at 4° C. The next day, plates were washed with wash buffer (PBS+0.05% Tween-20, PBST), and blocked with 5% w/v non-fatty milk in PBST for 2 hours at 37° C. Plates were then washed again using wash buffer.
After incubation at 37° C. for 40 minutes, plates were washed 4 times using wash buffer. […] Plates were washed again using wash buffer. Finally, TMB was added and the reaction was stopped using 1M H₂SO₄. The absorbance was read on a microplate reader using dual wavelength mode with 450 nm for TMB and 630 nm as the reference wavelength, then the OD (450-630) values were plotted against the antibody concentration. Data was analyzed using Graphpad Prism and IC₅₀ values were reported.

[13] = molecular target: T4, biotin-labeled human TSLP-Fc (human, biotin-labeled); assay: cell-based blocking FACS: antibody pre-mixed with biotin human TSLP-Fc; blocked binding to cell-surface TSLPR/IL7Ra on HEK293T-TSLPR/IL7R/STAT5-Luc 5C5 cells
T4 construct: also called TSLP-Fc protein; TSLP-Fc-biotin
Description: (§5) The cells were prepared following the instruction of lipofectamine 3000 transfection reagent (Thermo Fisher), by transfecting HEK293T cells (ATCC® CRL-11268) with pCMV-T-P plasmids inserted with TSLPR coding sequence between EcoRI and Xba1 sites and pCMV3-SP plasmids inserted with IL7Ra coding sequence between HindIII and Xba1 sites as well as pGL4.52 [luc2P/STAT5RE/Hygro](Promega).
(§6) The cells were harvested from cell culture flasks, washed twice and re-suspended in phosphate buffered saline (PBS) containing 2% v/v Fetal Bovine Serum (FACS buffer). […] Cells were washed twice with FACS buffer, and then added and incubated with 100 μL/well R-Phycoerythrin Streptavidin (1:500 dilution in FACS buffer, Jackson Immunoresearch, Cat #016-110-084) for 40 minutes at 4° C. in dark. Cells were washed twice and re-suspended in FACS buffer. Fluorescence was measured using a Becton Dickinson FACS Canto II-HTS equipment. Data was analyzed using Graphpad Prism and IC₅₀ values were reported.

[14] = molecular target: T4, biotin-labeled human TSLP-Fc; assay: as above; remark: listed apart in the source
Description: as §5, §6

Binder | Inhibition on IL4 induced STAT6 phosphorylation (IC50, nM) [1] | Inhibition on IL13 induced STAT6 phosphorylation (IC50, nM) [1] | EC50 [2] | IC50 [3] | EC50 [4] | IC50 [5] | IC50 [6] | EC50 [7] | IC50 [8] | EC50 [9] | Kd [10] | koff [10] | kon [10] | EC50 [11] | IC50 [12] | IC50 [13] | IC50 [14]
huC2C1A1A1-V15(IgG4) (antibody, also called anti-IL4R huC2C1A1A1-V15) heavy: not shown light: DIQMTQSPSSLSASVGDRVTITCRTSENIYSYLAWYQQKPGKAPKFLVYNAKTLAEGVPSRFSGSGSGTDFTLTISSLQPEDFATYYCQHYYGPPTWTFGQGTKVEIKRTVAAPSVFIFPPSDEQLKSGTASVVCLLNNFYPREAKVQWKVDNALQSGNSQESVTEQDSKDSTYSLSSTLTLSKADYEKHKVYACEVTHQGLSSPVTKSFNRGEC | 0.015 nM | 0.033 nM | ~0.161 nM | 0.107 nM | 0.0225 nM | 0.266 nM | 0.364 nM |  |  |  |  |  |  |  |  |  | 
Dupilumab (antibody, V domains shown) VH: EVQLVESGGGLEQPGGSLRLSCAGSGFTFRDYAMTWVRQAPGKGLEWVSSISGSGGNTYYADSVKGRFTISRDNSKNTLYLQMNSLRAEDTAVYYCAKDRLSITIRPRYYGLDVWGQGTTVTVSS VL: DIVMTQSPLSLPVTPGEPASISCRSSQSLLYSIGYNYLDWYLQKSGQSPQLLIYLGSNRASGVPDRFSGSGSGTDFTLKISRVEAEDVGFYYCMQALQTPYTFGQGTKLEIKR | 0.00473 nM | 0.0262 nM |  |  |  | 0.22 nM | 0.254 nM | 0.128 nM | 0.102 nM | 0.015 nM | 0.196 nM | 5.58e-05 s⁻¹ | 285000 M⁻¹ s⁻¹ |  |  |  | 
hu1C5F12E9-V8(IgG4) (antibody, also called parental anti-TSLP antibody hu1C5F12E9-V8(IgG4)) heavy: not shown light: DIQMTQSPSSLSASVGDRVTITCRPTENIYSYLAWYQQKPGKAPKLLIYFARTLAEGVPSRFSGSGSGTDFTLTISSLQPEDFATYYCQHHYGTPWTFGGGTKVEIKRTVAAPSVFIFPPSDEQLKSGTASVVCLLNNFYPREAKVQWKVDNALQSGNSQESVTEQDSKDSTYSLSSTLTLSKADYEKHKVYACEVTHQGLSSPVTKSFNRGEC |  |  |  |  |  |  |  |  |  |  |  |  |  | 0.0512 nM | 0.0716 nM | 1.04 nM | 1 nM
